Results published in PMC12172977.

Target: CCHFV nucleocapsid protein (N protein) (Crimean-Congo hemorrhagic fever virus (strain 10200?)) (UniProt P89522)
Assay: filter binding

UniProt P89522, sequence (P89522 whole entry): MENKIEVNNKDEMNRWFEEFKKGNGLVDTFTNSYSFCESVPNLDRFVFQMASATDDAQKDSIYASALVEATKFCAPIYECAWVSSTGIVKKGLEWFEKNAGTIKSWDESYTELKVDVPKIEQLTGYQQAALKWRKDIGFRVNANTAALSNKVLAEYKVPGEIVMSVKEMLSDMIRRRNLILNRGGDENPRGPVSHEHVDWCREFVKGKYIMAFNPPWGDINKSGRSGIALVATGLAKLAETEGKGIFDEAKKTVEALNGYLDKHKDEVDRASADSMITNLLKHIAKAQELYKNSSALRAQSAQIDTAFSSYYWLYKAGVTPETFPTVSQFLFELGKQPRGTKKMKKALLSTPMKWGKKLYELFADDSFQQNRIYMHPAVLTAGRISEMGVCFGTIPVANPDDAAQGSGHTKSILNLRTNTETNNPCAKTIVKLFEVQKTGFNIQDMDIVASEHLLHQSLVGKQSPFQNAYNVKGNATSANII

Luc mRNA-1 (WT S-segment 5' UTR + luciferase ORF + truncated S 3' UTR)
Kd: 42 nM
